Assay results from article PMC3091956.

Target: T1, 6xHis-Stg (N-terminally histidine-tagged full-length mouse stargazin) (mouse), O88602
T1 chain: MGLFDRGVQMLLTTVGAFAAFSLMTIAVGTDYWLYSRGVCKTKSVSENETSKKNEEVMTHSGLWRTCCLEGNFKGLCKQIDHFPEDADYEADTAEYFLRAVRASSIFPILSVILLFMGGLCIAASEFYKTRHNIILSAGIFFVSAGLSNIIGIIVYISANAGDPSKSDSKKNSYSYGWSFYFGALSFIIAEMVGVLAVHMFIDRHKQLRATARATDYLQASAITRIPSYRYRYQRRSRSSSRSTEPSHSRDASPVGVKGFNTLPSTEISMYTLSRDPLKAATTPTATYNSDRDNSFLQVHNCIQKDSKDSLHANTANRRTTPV
Assay: electron crystallography of 2D crystals
Conditions: remark: other sources report otherwise

B1: 6xHis-Stg (N-terminally histidine-tagged full-length mouse stargazin), O88602 1-323 (natural protein)
chain: T1 chain
In the case of B1, the stoichiometry N is reported as 2.
